Here are results for six molecules from PMC12256043, “Integrated platform for structural and functional analysis of terpene synthases of Cannabis sativa” (PeerJ, 2025).

By Km is commonly meant the concentration of substrate that gives half-maximal velocity.

Common to all, as to test: malachite green assay coupled to inorganic pyrophosphatase
What all share (conditions): pH 7.5, 5 mM MgCl2, 37 °C, 30 min

Data set [1] concerns the target T1, CsTPS12PK (Cannabis sativa, UniProt A0A1V0QSF4).
T1 construct: gene TPS33PK; printed as CsTPS12PK/CsTPS33PK; E. coli; monomer
Type of data set: biochemical. The source says: malachite green assay coupled to inorganic pyrophosphatase on CsTPS12PK

Data set [2] has as its target T2, CsTPS13PK (Cannabis sativa, UniProt A0A1V0QSG1).
T2 construct: gene TPS13PK; E. coli BL21(DE3); monomer
It is filed as biochemical. The source says:
malachite green assay coupled to inorganic pyrophosphatase on CsTPS13PK

Substrate in data set [3]: CC(C)=CCC/C(C)=C/COP(=O)(O)OP(=O)(O)O
It is filed as biochemical, Cannabis sativa.

Substrate in data set [4]: CC(C)=CCC/C(C)=C/COP(=O)(O)OP(=O)(O)O
Type of data set: biochemical, Cannabis sativa. The source says:
malachite green assay coupled to inorganic pyrophosphatase on CsTPS1SK
This is another data set of the same source.

Substrate in data set [5]: CC(C)=CCC/C(C)=C/COP(=O)(O)OP(=O)(O)O
It is filed as biochemical, Cannabis sativa. The source says: malachite green assay coupled to inorganic pyrophosphatase on CsTPS3FN
The source holds these as a separate data set.

Substrate in data set [6]: CC(C)=CCC/C(C)=C/CC/C(C)=C/CO[P@@](=O)(O)OP(=O)(O)O
It is filed as biochemical, Cannabis sativa. The source says:
malachite green assay coupled to inorganic pyrophosphatase on CsTPS20CT

Substrate in data set [7]: CC(C)=CCC/C(C)=C/CC/C(C)=C/CO[P@@](=O)(O)OP(=O)(O)O
It is filed as biochemical, Cannabis sativa. The source says:
malachite green assay coupled to inorganic pyrophosphatase on CsTPS16CC
The source holds these as a separate data set.

T1 sequence (A0A1V0QSF4 34-615): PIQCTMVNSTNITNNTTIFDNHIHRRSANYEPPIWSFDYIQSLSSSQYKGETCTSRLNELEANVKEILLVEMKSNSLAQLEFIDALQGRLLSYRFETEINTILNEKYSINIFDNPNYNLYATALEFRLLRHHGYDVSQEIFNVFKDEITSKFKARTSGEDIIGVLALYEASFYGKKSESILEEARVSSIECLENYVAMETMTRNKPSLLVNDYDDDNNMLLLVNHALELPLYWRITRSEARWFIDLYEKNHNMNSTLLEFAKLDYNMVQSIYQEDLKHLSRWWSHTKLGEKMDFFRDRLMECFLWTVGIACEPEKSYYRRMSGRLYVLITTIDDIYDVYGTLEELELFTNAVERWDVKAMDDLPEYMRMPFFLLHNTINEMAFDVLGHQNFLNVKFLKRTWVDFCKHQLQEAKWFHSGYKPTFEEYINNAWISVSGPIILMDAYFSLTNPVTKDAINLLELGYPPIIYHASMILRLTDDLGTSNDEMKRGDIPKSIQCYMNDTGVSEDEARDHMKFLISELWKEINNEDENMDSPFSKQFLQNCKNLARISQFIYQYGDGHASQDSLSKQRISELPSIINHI
T2 sequence (A0A1V0QSG1 41-640): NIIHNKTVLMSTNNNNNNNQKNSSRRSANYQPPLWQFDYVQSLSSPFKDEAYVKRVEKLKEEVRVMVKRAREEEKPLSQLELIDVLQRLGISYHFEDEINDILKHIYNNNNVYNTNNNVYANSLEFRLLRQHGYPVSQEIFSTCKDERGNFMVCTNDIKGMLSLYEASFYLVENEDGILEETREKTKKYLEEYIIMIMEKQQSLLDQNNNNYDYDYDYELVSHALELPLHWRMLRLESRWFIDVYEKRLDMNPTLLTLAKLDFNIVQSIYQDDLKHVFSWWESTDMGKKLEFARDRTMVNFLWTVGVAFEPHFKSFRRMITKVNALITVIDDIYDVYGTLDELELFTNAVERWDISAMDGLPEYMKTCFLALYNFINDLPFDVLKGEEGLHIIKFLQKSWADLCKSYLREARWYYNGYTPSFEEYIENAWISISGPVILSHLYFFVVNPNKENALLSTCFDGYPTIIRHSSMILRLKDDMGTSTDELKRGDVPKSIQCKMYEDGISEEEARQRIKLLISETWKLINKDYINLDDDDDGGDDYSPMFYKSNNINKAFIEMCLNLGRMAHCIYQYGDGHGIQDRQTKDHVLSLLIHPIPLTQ

As for `CC(C)=CCC/C(C)=C/COP(=O)(O)OP(=O)(O)O` [GPP, geranyl diphosphate], the Km in data set [1] was 41.8 ± 8.29 µM; in data set [2] it was 13 ± 1.23 µM.

B1: CsTPS5FN (Cannabis sativa) (protein)
chain: MSLSGLISTTTFKEQPAIVRRSGNYKPPLWDAHFIQSLQVIYTEESYGKRINELKEDVRRILEKEAENPLVKLEQINDLSRLGISYHFEDQIKAILNLTYNNNNALWKKDNLYATALHFKLLRQYGFNPVSSEIFNAFKDEKKEFKESLSKDVKGMVCLYEASFYSFRGEPILDEARDFTTKHLKQYLMMTRQGQNVDHDDDNDLMVKLVEHALELPVHWRMKRLEARWFIDMYAEMSHHHHMNSTFLQLAKLDFNVVQSTYQEDLKHVVRWWKTTSLGERLPFARDRIVEIFLWSVGLKFEPQFRYCRKMLTKIGQLVTTMDDIFDVYGTLDELSLFQHALGRWDINTIDQLPDYMKIFFLATYNVVNEMAYDVLKQNGILIIKYLKKTWTDLCKCYMLEANWYHSGYTPSLEEYIKNGWISIAEPLILVNLYCLITNPIKEDDIDCLLQYPTFIRISGIIARLVDDLGTSSDELKRGDNPKSIQCYMKENGICDEKNGREHIRNLISETWKEMNEARVGESPFSQAFIETAIDFVRTAMMIYQKEQDGVGTNIDHYTKDGIISLFFTSIPI
notes: E. coli BL21(DE3); monomer
On to B1, for which, in data set [3], the Km was determined as 23.3 ± 1.34 µM.

B2: CsTPS1SK (Cannabis sativa) (protein)
chain: RSANYGPPIWSFDFVQSLPIQYKGESYTSRLNKLEKDVKRMLIGVENSLAQLELIDTIQRLGISYRFENEIISILKEKFTNNNNNPNPINYDLYATALQFRLLRQYGFEVPQEIFNNFKNHKTGEFKANISNDIMGALGLYEASFHGKKGESILEEARIFTTKCLKKYKLMSSSNNNNMTLISLLVNHALEMPLQWRITRSEAKWFIEEIYERKQDMNPTLLEFAKLDFNMLQSTYQEELKVLSRWWKDSKLGEKLPFVRDRLVECFLWQVGVRFEPQFSYFRIMDTKLYVLLTIIDDMHDIYGTLEELQLFTNALQRWDLKELDKLPDYMKTAFYFTYNFTNELAFDVLQEHGFVHIEYFKKLMVELCKHHLQEAKWFYSGYKPTLQEYVENGWLSVGGQVILMHAYFAFTNPVTKEALECLKDGHPNIVRHASIILRLADDLGTLSDELKRGDVPKSIQCYMHDTGASEDEAREHIKYLISESWKEMNNEDGNINSFFSNEFVQVKQNLGRASQMIYQYGDGHASQNNLSKERVLGLIITPIPM
notes: E. coli BL21(DE3); monomer
For the molecule B2, in data set [4], the Km came to 7.809 ± 0.678 µM.

B3: CsTPS3FN (Cannabis sativa) (protein)
chain: RSANYEPPIWSFDYIQSLSTQYKGESYTRQLNKLKKEVKRMLLRMEINSLALLELIDTLQRLGISYHFKNEINTILKKKYNDNYINNNIITNPNYNNLYATALEFRLLRQHGYTVPQEIFNAFKDKRGKFKTSLSDDIMGVLCLYEASFYAMKHENILEEARIFSTKCLKKYMEKIENEEEKKILLLNDNNINSNLLLINHAFELPLHWRITRSEARWFIDEIYEKKQDMNSTLFEFAKLDFNIVQSTHQEDLQHLSRWWRDCKLGGKLNFARDRLMEAFLWDVGLKFEGEFSYFRRTNARLFVLITIIDDIYDVYGTLEELELFTSAVERWDVKLINELPDYMKMPFFVLHNTINEMGFDVLVEQNFVNIEYLKKSWVDLCKCYLQEAKWYYSGYQPTLEEYTELGWLSIGASVILMHAYFCFTNPITKQDLKSLQLQHHYPNIIKQACLITRLADDLGTSSDELNRGDVPKSIQCYMYDNNATEDEAREHIKFLISETWKDMNKKDEDESCLSENFVEVCKNMARTALFIYENGDGHGSQNSLSKERISTLIITPINIPK
notes: E. coli BL21(DE3); monomer
In the case of B3, the Km in data set [5] stood at 4.569 ± 0.411 µM.

B4: CsTPS20CT (Cannabis sativa) (protein)
chain: MSNIQVLASSQLSDKIIARPTTKFHPSIWGDRFLHYNISEQDLVCKQEKVEELIQVVKKEILSSNHDQLKLIDNLQRLGLSYHFESEIEKLLEQLSITHHQNHHDLHDASLWFRLLRQHGFNVSSSIFEKFKDEEGNFKESLITDVPGLLSLYEASHLSYVGESILDEALAFTTTHLKAIVANSKDHPLSHQISIVLHRPLRKTIERLHARFYISIYEKDASHNKLLLELAKLDFNLLQCFHKKELSEITRWWKEHEFAKKFPFARDRMVELYFWILGVYYEPKYSRARKLLTKVIALTSITDDIYDAYGTIDELQLLTKAIQRWDINCMDKLKQEYLKTYYKVMLDSYEEFEKELKKEELYKLEYAKEEMKRIIGGYFEEARWLNEGYFPSFDEHLRVSYVSSGNVLLIATSFVGMHDVVTHETLDWLSKDPKIVSASTLLSRFMDDIGSRKFEQKRNHIPSTVDCYMKQYGVSEEEAIKELNKRVDTHWKEINEDFIRPAVVPFPILVRVLNFTKIVDLLYKEGDDQYTNVGKVLKESIAALLIDSIPL
notes: E. coli BL21(DE3); monomer
As for B4, the Km in data set [6] was 16.86 ± 6.42 µM.

B5: CsTPS16CC (Cannabis sativa) (protein)
chain: MSSQVLASSQKNDKTQNIIRPTTKFHPPIWGDRFLHYNISEQELEYKEGQVEELKEVVRKEIFHGNNKRNIINVSKQLKLIDDVERLGLSYHFESEIEKKLQHIYEITTNNIDHQDQHYYYSNHDEDLHDVSIRFRLLRQHGFNISSNIFEKFKDESGKFKESLKSDIEGMLSLYEASYLSYVEENILDEALAFTTTNLKLVANKKEHPLSHEISLALYRPLRKTLVRLYARHYISIYEKQPSHNKVLLQFAKLDFNLLQSLHKKELSEISRWWKELDLANKLPFARNRIVELYLWILGVFHEPQFSLARKILIKAISMASVADDIYDAYGTFEELELLTEAILRWDISFIDKLSPDYLKTYYKVFLNSYEECEKDLKKEERYKLHYAKESMKKLIQAYFHEAQWLNQGHFPSFDEHLKVSFVSSGYPMLIETSFVGMQDVKTNQVFEWLSTQPKIFRACTIISRFMDDLVSRKFEQERNHVPSTVDCYMKQYGVSEQEACDELNKQVVNLWKEINQEFLRPTSMPSSILVRILNFTKVLDIIYKEGDGYTHVGKLVKDSVAALLIDPIPL
notes: E. coli BL21(DE3); monomer
With B5, the Km in data set [7] came out at 38.43 ± 2.83 µM.
